Data reported in publication PMC3696004.

B1: Fib3 prey fusion protein from the Y2H screen (EFEMP1/Fibulin 3 residues 289-493) (domain or fragment)
chain: RLNCEDIDECRTSSYLCQYQCVNEPGKFSCMCPQGYQVVRSRTCQDINECETTNECREDEMCWNYHGGFRCYPRNPCQDPYILTPENRCVCPVSNAMCRELPQSIVYKYMSIRSDRSVPSDIFQIQATTIYANTINTFRIKSGNENGEFYLRQTSPVSAMLVLVKSLSGPREHIVDLEMLTVSSIGTFRTSSVLRLTIIVGPFSF

Key:
[1] = biological target: HAFib3 (Fib3 prey fragment with an N-terminal hemagglutinin tag) (human) (UniProt Q12805); assay: ELISA; HAFib3 (250 ng/ml) captured on plate-bound anti-HA antibody; a range of concentrations of CFH678 (H or Y) in PBS, overnight at 4°C; detected with goat anti-CFH and HRP secondary antibody at 450 nm; background without HAFib3 subtracted, 8 replicates; one-site specific binding fit (GraphPad Prism)
[2] = biological target: CFH SCR7 bait, 402H variant (human); assay: two-hybrid; quantitative βGal assay in selective liquid culture with CPRG substrate, Miller Units; five independent yeast clones for each bait
Chain of CFH SCR7 bait, 402H variant (human) (P08603 19-1231, change not shown): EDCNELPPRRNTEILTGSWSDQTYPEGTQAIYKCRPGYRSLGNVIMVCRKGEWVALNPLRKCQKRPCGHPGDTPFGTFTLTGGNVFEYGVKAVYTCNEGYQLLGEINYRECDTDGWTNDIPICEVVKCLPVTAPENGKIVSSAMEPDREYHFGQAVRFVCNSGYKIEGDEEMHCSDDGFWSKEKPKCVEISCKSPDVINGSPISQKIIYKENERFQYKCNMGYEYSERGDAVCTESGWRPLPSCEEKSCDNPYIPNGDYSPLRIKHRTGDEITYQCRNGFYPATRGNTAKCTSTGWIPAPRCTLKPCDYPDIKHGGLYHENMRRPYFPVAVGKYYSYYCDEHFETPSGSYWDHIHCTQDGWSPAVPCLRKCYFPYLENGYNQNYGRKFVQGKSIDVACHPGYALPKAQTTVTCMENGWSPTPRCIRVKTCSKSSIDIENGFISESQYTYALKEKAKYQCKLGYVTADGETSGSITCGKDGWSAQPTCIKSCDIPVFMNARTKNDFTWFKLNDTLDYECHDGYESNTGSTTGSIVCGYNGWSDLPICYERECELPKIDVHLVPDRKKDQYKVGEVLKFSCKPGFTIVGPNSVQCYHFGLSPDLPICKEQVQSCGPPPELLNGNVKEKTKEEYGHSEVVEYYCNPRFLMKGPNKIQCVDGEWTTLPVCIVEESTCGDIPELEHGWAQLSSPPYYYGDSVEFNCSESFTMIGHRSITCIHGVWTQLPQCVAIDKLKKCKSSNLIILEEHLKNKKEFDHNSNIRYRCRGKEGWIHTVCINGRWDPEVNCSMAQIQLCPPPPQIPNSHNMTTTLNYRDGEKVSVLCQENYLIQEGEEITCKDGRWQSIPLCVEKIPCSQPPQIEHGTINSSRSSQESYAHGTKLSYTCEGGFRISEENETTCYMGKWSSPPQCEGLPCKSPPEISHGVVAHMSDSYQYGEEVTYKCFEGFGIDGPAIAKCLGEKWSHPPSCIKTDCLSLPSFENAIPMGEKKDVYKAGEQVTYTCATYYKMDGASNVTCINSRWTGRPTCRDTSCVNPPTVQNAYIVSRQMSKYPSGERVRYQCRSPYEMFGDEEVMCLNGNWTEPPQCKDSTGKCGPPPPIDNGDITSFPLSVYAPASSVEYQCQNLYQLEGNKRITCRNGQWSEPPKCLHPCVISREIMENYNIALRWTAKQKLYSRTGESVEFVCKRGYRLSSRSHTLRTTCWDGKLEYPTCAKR

Molecule	Kd [1] [nM]	higher βGal activation than with CFH-Y [2] [%]
Recombinant CFH domains 6-8, 402H variant (CFH678-H) (domain or fragment)	134	
Recombinant CFH domains 6-8, 402Y variant (CFH678-Y) (domain or fragment)	197	
B1		60
